Laboratory results as given in patent publication EP4335870A1 (NantCell, Inc., dated 2024).

B1: N-612-017 (antibody, V domains shown)
VH: EVQLVESGGGLVQPGGSLRLSCAASGFTFSSYAMHWVRQAPGKGLEWVSAIWGSGSNTYYADSVKGRFTISRDNSKNTLYLQMNSLRAEDTAVYYCARGRDLAAFTKTAFDVWGQGTLVTVSS
VL: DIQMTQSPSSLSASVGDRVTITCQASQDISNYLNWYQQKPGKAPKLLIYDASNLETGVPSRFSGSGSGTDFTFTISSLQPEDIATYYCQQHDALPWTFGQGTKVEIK
B2: N-612-017-5B05 SV (antibody, V domains shown)
VH: EVQLVESGGGLVQPGGSLRLSCAASGFTFSSYVMHWVRQAPGKGLEWVSAIWGSGSNTYYADSVKGRFTISVDNSKNTLYLQMNSLRAEDTAVYYCARGEELAAFTKTAFDVWGQGTLVTVSS
VL: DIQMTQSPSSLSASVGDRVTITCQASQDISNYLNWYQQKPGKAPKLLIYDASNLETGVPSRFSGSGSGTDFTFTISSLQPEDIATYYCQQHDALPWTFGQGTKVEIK
B3: N-612-004 (antibody, V domains shown)
VH: EVQLVESGGGLVQPGGSLRLSCAASGFTFSSYYMHWVRQAPGKGLEWVSAISGSGGYTYYADSVKGRFTISRDNSKNTLYLQMNSLRAEDTAVYYCARDRDHAYDWGFDVWGQGTLVTVSS
VL: DIQMTQSPSSLSASVGDRVTITCQASQDISNYLNWYQQKPGKAPKLLIYDASNLETGVPSRFSGSGSGTDFTFTISSLQPEDIATYYCQQWADWPLTFGQGTKVEIK
B4: N-612-056-21 (antibody, V domains shown)
VH: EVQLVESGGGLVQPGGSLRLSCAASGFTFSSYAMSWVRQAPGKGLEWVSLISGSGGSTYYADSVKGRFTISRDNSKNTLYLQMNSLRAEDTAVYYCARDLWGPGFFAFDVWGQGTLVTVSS
VL: DIQMTQSPSSLSASVGDRVTITCQASQDISNYLNWYQQKPGKAPKLLIYDASNLETGVPSRFSGSGSGTDFTFTISSLQPEDIATYYCQQDAGTPLTFGQGTKVEIK
B5: N-612-056 (antibody, V domains shown)
VH: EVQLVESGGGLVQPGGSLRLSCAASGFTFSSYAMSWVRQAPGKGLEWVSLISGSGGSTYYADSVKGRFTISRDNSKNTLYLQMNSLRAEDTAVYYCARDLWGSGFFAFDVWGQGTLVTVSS
VL: DIQMTQSPSSLSASVGDRVTITCQASQDISNYLNWYQQKPGKAPKLLIYDASNLETGVPSRFSGSGSGTDFTFTISSLQPEDIATYYCQQDAGTPLTFGQGTKVEIK
B6: N-612-014 (antibody, V domains shown)
VH: EVQLVESGGGLVQPGGSLRLSCAASGFTFSSYAMTWVRQAPGKGLEWVSYISGSGGGTYYADSVKGRFTISRDNSKNTLYLQMNSLRAEDTAVYYCARDRWASGWLAFDVWGQGTLVTVSS
VL: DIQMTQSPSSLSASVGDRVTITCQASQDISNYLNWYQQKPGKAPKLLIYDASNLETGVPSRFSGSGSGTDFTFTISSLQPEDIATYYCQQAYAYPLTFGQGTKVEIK
B7: N-612-007 (antibody, V domains shown)
VH: EVQLVESGGGLVQPGGSLRLSCAASGFTFSNYAMHWVRQAPGKGLEWVSAISGNGGSTGYADSVKGRFTISRDNSKNTLYLQMNSLRAEDTAVYYCARDRWYVKNAFDVWGQGTLVTVSS
VL: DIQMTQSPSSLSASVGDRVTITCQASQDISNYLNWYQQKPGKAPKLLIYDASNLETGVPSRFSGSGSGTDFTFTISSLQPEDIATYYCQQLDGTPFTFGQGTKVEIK

What was measured:
[1] = biological target: SARS-CoV-2 Spike protein on live SARS-CoV-2 (SARS-CoV-2, UniProt P0DTC2 14-1273); test: cell-based or functional assay
[2] = biological target: SARS-CoV-2 Spike receptor binding domain (RBD), wildtype (SARS-CoV-2, UniProt P0DTC2 319-541)

Row | Binder | live SARS-CoV-2 neutralization IC50 [1] [µg/mL] | Kd [2] [nM]
1 | B1 | 0.0756 | 5.29
2 | B2 |  | 6.62
3 | B3 | 0.194 | 
4 | B4 |  | 0.41
5 | B5 | 0.855 | 2.98
6 | B6 | 0.00791 | 
7 | B7 | 0.0452 | 
